# From publication PMC4741457, “Structural basis for the indispensable role of a unique zinc finger motif in LNX2 ubiquitination” (Oncotarget, 2015)
# Positions count from the first letter of the chain named.
# B1: full-length LNX2 (enzyme, human, UniProt Q8N448 1-690, looked up)
# chain: MGTTSDEMVSVEQTSSSSLNPLCFECGQQHWTRENHLYNYQNEVDDDLVCHICLQPLLQPLDTPCGHTFCYKCLRNFLQEKDFCPLDRKRLHFKLCKKSSILVHKLLDKLLVLCPFSSVCKDVMQRCDLEAHLKNRCPGASHRRVALERRKTSRTQAEIENENGPTLLDPAGTLSPEADCLGTGAVPVERHLTSASLSTWSEEPGLDNPAFEESAGADTTQQPLSLPEGEITTIEIHRSNPYIQLGISIVGGNETPLINIVIQEVYRDGVIARDGRLLAGDQILQVNNYNISNVSHNYARAVLSQPCNTLHLTVLRERRFGNRAHNHSDSNSPREEIFQVALHKRDSGEQLGIKLVRRTDEPGVFILDLLEGGLAAQDGRLSSNDRVLAINGHDLKYGTPELAAQIIQASGERVNLTIARPGKPQPGNTIREAGNHSSSSQHHTPPPYYSRPSSHKDLTQCVTCQEKHITVKKEPHESLGMTVAGGRGSKSGELPIFVTSVPPHGCLARDGRIKRGDVLLNINGIDLTNLSHSEAVAMLKASAASPAVALKALEVQIVEEATQNAEEQPSTFSENEYDASWSPSWVMWLGLPSTLHSCHDIVLRRSYLGSWGFSIVGGYEENHTNQPFFIKTIVLGTPAYYDGRLKCGDMIVAVNGLSTVGMSHSALVPMLKEQRNKVTLTVICWPGSLV
# notes: Ligand of Numb protein-X 2 (LNX2), human, full length (last residue Val690); The methods say in general that MBP-tagged proteins were cleaved with TEV protease before size exclusion; MBP-tagged FL-LNX2 was used uncleaved in some ubiquitination assays; also called FL-LNX2; Ligand of Numb Protein-X 2; source: E. coli BL21 (DE3), purified (amylose sepharose, size exclusion)
# B2: full-length LNX2 triple mutant (Lys109Ala, Ser688Asp, Val690Glu) (enzyme, human, UniProt Q8N448 1-690, looked up)
# chain: B1 chain with K109A, S688D, V690E
# notes: LNX2, human, full length, with Lys109Ala, Ser688Asp and Val690Glu; also called triple mutant of human FL-LNX2; source: E. coli BL21 (DE3), purified
# B3: Zn-RING-Zn domain of LNX2 (aa 20-147) (domain or fragment, human, UniProt Q8N448 20-147, looked up)
# chain: NPLCFECGQQHWTRENHLYNYQNEVDDDLVCHICLQPLLQPLDTPCGHTFCYKCLRNFLQEKDFCPLDRKRLHFKLCKKSSILVHKLLDKLLVLCPFSSVCKDVMQRCDLEAHLKNRCPGASHRRVAL
# notes: Genes were cloned into pGEX6P-1 or pMAL; The last six residues are not in the crystallographic model; Four zinc ions per monomer; source: E. coli BL21 (DE3), purified (glutathione or amylose sepharose, tag cleaved, Superdex size exclusion)
# B4: Zn-RING-Zn domain of LNX2 (aa 20-147) Asp45Ala (domain or fragment, human, UniProt Q8N448 20-147, looked up)
# chain: B3 chain with D26A
# notes: PDB 5DIN is the wild-type parent of the same limits; also called Asp45Ala mutant; source: E. coli BL21 (DE3), purified
# Target: the molecule itself
# Assay: SEC; calibrated gel-filtration column (Superdex 75 or Superdex 200), each protein run alone
Protein,stoichiometry N,binding result
B1,2,
B2,,binds
B3,2,
B4,2,
